Values belong to the binder of their own block, whether it stands above or below them.
How the values were obtained:
Details in all cases: both partners purified
[1] = biological target: T1, PARylated (activated) human PARP1 used in HDX-MS (human, UniProt P09874 1-1014, poly(ADP-ribose) (PARylated; sites not stated)); test: HDX-MS; ALC1^fl with and without PARylated or non-PARylated PARP1; 50 mM Tris, 50 mM NaCl, 5 mM MgCl2, 1.5 μM 239 bp dsDNA, 1 mM ATP, 1 mM TCEP pH 7.9, ~70% D2O, 23°C, five time points
T1 construct: human PARP1; also called PARylated PARP1

[2] = biological target: T2, ALC1^cat (ATPase motor of human ALC1, residues 16-612), 6xHis-tagged (human, UniProt Q86WJ1 16-612); test: SEC; 7 nmol each of ALC1^cat and ALC1^macro mixed, 10 min on ice, Superdex 200 10/300 GL, 20 mM MES pH 6.5, 300 mM NaCl, 10% glycerol, 0.5 mM TCEP; peak fractions on SDS-PAGE
T2 construct: human ALC1 (Amplified in liver cancer 1; CHD1L), residues 16-612; Made by PCR-based mutagenesis of the ALC1^fl construct (pNIC-CH2); also called ALC1/CHD1L variant that lacks the macro domain; source: E. coli Rosetta 2 (DE3), purified (HisTrap, Q HP, Superdex 200)
T2 sequence (looked up): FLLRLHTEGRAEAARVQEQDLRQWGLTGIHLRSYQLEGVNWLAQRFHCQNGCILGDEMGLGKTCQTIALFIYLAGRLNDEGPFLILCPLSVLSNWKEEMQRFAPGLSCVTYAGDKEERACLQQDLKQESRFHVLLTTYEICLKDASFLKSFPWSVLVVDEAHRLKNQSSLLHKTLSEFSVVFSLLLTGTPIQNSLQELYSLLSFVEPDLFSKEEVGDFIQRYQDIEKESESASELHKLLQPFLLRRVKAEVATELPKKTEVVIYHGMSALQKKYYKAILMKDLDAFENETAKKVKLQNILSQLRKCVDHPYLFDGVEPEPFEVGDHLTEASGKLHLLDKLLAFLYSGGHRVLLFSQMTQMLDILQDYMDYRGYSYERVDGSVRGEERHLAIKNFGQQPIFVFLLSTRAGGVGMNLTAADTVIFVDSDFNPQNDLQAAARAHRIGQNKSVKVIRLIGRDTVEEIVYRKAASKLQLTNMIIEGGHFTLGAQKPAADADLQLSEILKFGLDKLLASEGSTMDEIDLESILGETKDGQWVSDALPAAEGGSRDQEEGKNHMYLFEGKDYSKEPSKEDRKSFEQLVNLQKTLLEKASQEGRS

[3] = biological target: T2, ALC1^cat (ATPase motor of human ALC1, …); test: pull-down; 5 μM 6xHis-ALC1^cat and 5 μM ALC1^macroΔ6xHis, Ni-NTA agarose, 1 h at 4°C, 20 mM HEPES pH 7.5, 300 mM NaCl, 10% glycerol, 20 mM imidazole, 0.5 mM TCEP; where indicated 5 μM GST-PARP1 pre-incubated with dsDNA and NAD+; eluate on SDS-PAGE
[4] = biological target: T3, PARylated GST-tagged human PARP1 (human, UniProt P09874 1-1014, poly(ADP-ribose) (PARylated by incubation with dsDNA and NAD+; sites not stated)); test: as above
T3 construct: human PARP1; also called PARylated PARP1; GST-tagged PARP1 (BPS Bioscience); source: bought: BPS Bioscience; incubated with 230 bp dsDNA and NAD+ for 5 min at 37°C
T3 sequence (P09874 whole entry): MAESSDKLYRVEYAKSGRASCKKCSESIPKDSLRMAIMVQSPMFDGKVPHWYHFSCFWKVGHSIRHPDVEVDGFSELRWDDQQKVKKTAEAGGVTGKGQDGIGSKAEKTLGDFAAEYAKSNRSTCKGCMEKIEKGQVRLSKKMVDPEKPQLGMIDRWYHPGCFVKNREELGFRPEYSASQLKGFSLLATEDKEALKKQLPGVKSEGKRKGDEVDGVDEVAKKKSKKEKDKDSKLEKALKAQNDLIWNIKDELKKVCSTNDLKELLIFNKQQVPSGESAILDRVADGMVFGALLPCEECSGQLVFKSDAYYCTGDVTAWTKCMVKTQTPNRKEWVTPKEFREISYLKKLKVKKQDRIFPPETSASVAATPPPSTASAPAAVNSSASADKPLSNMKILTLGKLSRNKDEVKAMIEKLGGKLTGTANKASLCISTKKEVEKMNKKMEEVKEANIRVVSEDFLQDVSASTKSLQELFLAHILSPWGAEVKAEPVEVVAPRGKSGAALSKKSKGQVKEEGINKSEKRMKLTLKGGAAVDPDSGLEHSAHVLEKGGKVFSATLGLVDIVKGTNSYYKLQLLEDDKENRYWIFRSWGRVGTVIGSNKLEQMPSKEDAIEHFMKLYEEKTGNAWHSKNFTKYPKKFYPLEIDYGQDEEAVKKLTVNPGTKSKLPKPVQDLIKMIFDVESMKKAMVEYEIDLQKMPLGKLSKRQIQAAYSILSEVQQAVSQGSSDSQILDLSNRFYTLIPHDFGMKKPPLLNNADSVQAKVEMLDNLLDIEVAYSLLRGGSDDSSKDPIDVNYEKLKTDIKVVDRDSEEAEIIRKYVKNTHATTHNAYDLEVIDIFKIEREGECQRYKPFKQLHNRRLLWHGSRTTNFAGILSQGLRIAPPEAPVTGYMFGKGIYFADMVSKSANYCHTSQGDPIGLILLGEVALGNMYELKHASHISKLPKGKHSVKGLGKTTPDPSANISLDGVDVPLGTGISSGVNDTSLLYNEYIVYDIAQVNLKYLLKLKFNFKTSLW

T1 sequence (P09874 whole entry): as above

binding result [1]: binds
B1: ALC1^fl (essentially full-length human ALC1, residues 16-879), 6xHis-tagged (enzyme, UniProt Q86WJ1 16-879, looked up)
chain: FLLRLHTEGRAEAARVQEQDLRQWGLTGIHLRSYQLEGVNWLAQRFHCQNGCILGDEMGLGKTCQTIALFIYLAGRLNDEGPFLILCPLSVLSNWKEEMQRFAPGLSCVTYAGDKEERACLQQDLKQESRFHVLLTTYEICLKDASFLKSFPWSVLVVDEAHRLKNQSSLLHKTLSEFSVVFSLLLTGTPIQNSLQELYSLLSFVEPDLFSKEEVGDFIQRYQDIEKESESASELHKLLQPFLLRRVKAEVATELPKKTEVVIYHGMSALQKKYYKAILMKDLDAFENETAKKVKLQNILSQLRKCVDHPYLFDGVEPEPFEVGDHLTEASGKLHLLDKLLAFLYSGGHRVLLFSQMTQMLDILQDYMDYRGYSYERVDGSVRGEERHLAIKNFGQQPIFVFLLSTRAGGVGMNLTAADTVIFVDSDFNPQNDLQAAARAHRIGQNKSVKVIRLIGRDTVEEIVYRKAASKLQLTNMIIEGGHFTLGAQKPAADADLQLSEILKFGLDKLLASEGSTMDEIDLESILGETKDGQWVSDALPAAEGGSRDQEEGKNHMYLFEGKDYSKEPSKEDRKSFEQLVNLQKTLLEKASQEGRSLRNKGSVLIPGLVEGSTKRKRVLSPEELEDRQKKRQEAAAKRRRLIEEKKRQKEEAEHKKKMAWWESNNYQSFCLPSEESEPEDLENGEESSAELDYQDPDATSLKYVSGDVTHPQAGAEDALIVHCVDDSGHWGRGGLFTALEKRSAEPRKIYELAGKMKDLSLGGVLLFPVDDKESRNKGQDLLALIVAQHRDRSNVLSGIKMAALEEGLKKIFLAAKKKKASVHLPRIGHATKGFNWYGTERLIRKHLAARGIPTYIYYFPRSK
notes: human ALC1 (CHD1L), residues 16-879; also called Human ALC1^fl (16-879) pNIC-CH2; source: E. coli Rosetta 2 (DE3), purified (HisTrap, Q HP/SP HP, Superdex 200)

binding result [2]: binds
B2: ALC1^macro (macro domain construct of human ALC1, residues 613-879), 6xHis-tagged (domain or fragment, UniProt Q86WJ1 613-879, looked up)
chain: LRNKGSVLIPGLVEGSTKRKRVLSPEELEDRQKKRQEAAAKRRRLIEEKKRQKEEAEHKKKMAWWESNNYQSFCLPSEESEPEDLENGEESSAELDYQDPDATSLKYVSGDVTHPQAGAEDALIVHCVDDSGHWGRGGLFTALEKRSAEPRKIYELAGKMKDLSLGGVLLFPVDDKESRNKGQDLLALIVAQHRDRSNVLSGIKMAALEEGLKKIFLAAKKKKASVHLPRIGHATKGFNWYGTERLIRKHLAARGIPTYIYYFPRSK
notes: human ALC1 (CHD1L), residues 613-879 (linker and macro domain); Made from the ALC1^fl construct (pNIC-CH2); no cleavage of the tag is described for this version; source: E. coli Rosetta 2 (DE3), purified (HisTrap, Q HP/SP HP, Superdex 200)

binding result [3]: binds
binding result [4]: binds
B3: ALC1^macroΔ6xHis (macro domain construct of human ALC1, residues 613-879, 6xHis tag removed by TEV) (domain or fragment, UniProt Q86WJ1 613-879, looked up)
chain: LRNKGSVLIPGLVEGSTKRKRVLSPEELEDRQKKRQEAAAKRRRLIEEKKRQKEEAEHKKKMAWWESNNYQSFCLPSEESEPEDLENGEESSAELDYQDPDATSLKYVSGDVTHPQAGAEDALIVHCVDDSGHWGRGGLFTALEKRSAEPRKIYELAGKMKDLSLGGVLLFPVDDKESRNKGQDLLALIVAQHRDRSNVLSGIKMAALEEGLKKIFLAAKKKKASVHLPRIGHATKGFNWYGTERLIRKHLAARGIPTYIYYFPRSK
notes: human ALC1 (CHD1L), residues 613-879; A TEV-cleavage site was added to the ALC1^macro construct; also called ALC1^macro6xΔHis; non-tagged macro domain; source: E. coli Rosetta 2 (DE3), purified; TEV cleavage of the 6xHis tag, second HisTrap flow-through
